Experiment: yeast display, Sf9 membrane polyspecificity reagent, FACS + sequencing; frameworks hold sequencing errors
Procedure, shortened: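 Nanobodies from a synthetic yeast display library (Saccharomyces cerevisiae BJ5465), induced 36–48 hours with galactose, were stained 1 hour at 4 °C with 10% biotinylated, detergent-solubilized Sf9 membrane reagent, enriched on streptavidin microbeads, then FACS-sorted. Anti-HA (expression) and streptavidin (reagent binding) fluorescence set low and high (top ~1%) gates. Polyreactivity labels come from the gate of origin. Genes were colony-PCR amplified, MiSeq 2 × 250 sequenced and filtered by CDR length.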

Sequence | polyreactivity (PSR sort gate)
QVQLVESGGGLVQAGGSLRLSCASSGRTFYQNAMGWYRQAPGKESEFVAAITGGTGSTHYADSVKGRFTISRDNAKNTVYLQMNSLKPEDTAVYYCATRYLFGFSRYDYWGQGTQVTVSS | low polyreactivity
QVQLVESGGGLVQAGGSLRLSCASSGSIFAYNTMGRYRQAPGKERELVAAITGRAGSTYYADSVKGRFTISRDNAKNTFYLQMNSLKPEDTAVYYCAAEYRFAFPLWLDYWGQGTQVTVSS | high polyreactivity
QVQLVESGGGLVQAGGSLRLSCASSGSIFGSYAMGWYRQPPGKESELDAAITGIGGSTYYADSVKGRFTISRDNAKNTVYLQMNSLKPEATAVYYCATRDRYRAPVVGGNYWVQGTQVTVSS | high polyreactivity
QVQLVESGGGLVQAGGSLRLSCASSGSIFKANGMGWYRQAPGKEREFVAAITRSGATTYYADSVKGRFTISRDNAKNTVYLQMNSLKTEDTAVYYCNVKAWRDLYYAGFDYWGQGTQVTVSS | low polyreactivity
QVQLVESGGGLVQAGGSLRLSCASSGSIFLYNAMGWYRQAPGKERELVAVINGRGGTYYADSVKGRFTISRDNAKNTVYLQMNSLKPEDTAVYYCATGFPPSAWYDSVRFEDRDSWGQGTQVTVSS | low polyreactivity
QVQLVESGGGLVQAGGSLRLSCASSGSIININVMGWYRQAPGKERELVAAINSGTSTYYADSVKGRFTFSRDNAKITVYLKMNSLKPEDTAVYYCAARNLFTGRRLFYFWGQGTQVTVSS | low polyreactivity
QVQLVESGGGLVQAGGSLRLSCASSGSKLGINVMGWYRQAPGKERELVAAISRRGGSTNYADSVKGRFTISRDNAKNTVYLQMNSLKPEDTAVYYCNALGHVQGYDYWGQGTQVTVSS | high polyreactivity
QVQLVESGGGLVQAGGSLRLSCASSGSTFEANAMGWSRQAPGKDRELVAAISSRGGSTYYADSVKGRFTISRDNGKNTVYFQRNSLKPEDTAVYYCAALLRSGGEYDYWGQGTQVTVSS | high polyreactivity
QVQLVESGGGLVQAGGSLRLSCASSGSTFGPNDMGWYRQAPGKERELVAAISRSGDDTYYADSVKGRFTISRDNAKNTVYLQMNSLKPEDTAVYYCNADGRPFFLRPLRWELDYWGQGTQVTVSS | low polyreactivity
QVQLVESGGGLVQAGGSLRLSCASSGSTFKVYDMGWSRQAPGKERELVATITWGGGGTYYADSVTGRFTISRDNAKNTVYLLMNSLKPQDTAVYFCAAEVTLYSCYRYWYRYEYWGQGTQVTVSS | high polyreactivity
QVQLVESGGGLVQAGGSLRLSCASSGSTFYSYVMGWYRQAPGKERELVAAITYSGGRTYYADSVKGRFTISRDNEKNTVYFQMYSLKPEDTAVYYCAKRVFNYQRYDYWGQGTQVTVSS | high polyreactivity
QVQLVESGGGLVQAGGSLRLSCASSGSTFYYYAMGWYRPAPGKERELVAAITKSGGSTYYADSVKGRFTISRDNAKNTVYLQMNSLKPEVTAVYYCAAYLRSGYKFDYWGQGTQVTVSS | low polyreactivity
QVQLVESGGGLVQAGGSLRLSCASSGSTLRWYAMGWYRQAPGKERELVARISWTTGSTYYADSVKGRFTISRDNAKNTVYLQMNSLKPEDTAVYYCAKGKKSSRSGIYNYWGQGTQVTVSS | high polyreactivity
QVQLVESGGGLVQAGGSLRLSCASSGSTLYDNAKGWYRPAPGKERELVAAISKSGGRTYYADSVKGRFTISRDNAKNSVYLQMNSLKPEDTAVYYCNDVSSGGDYNYWGQGTQVTVSS | high polyreactivity
QVQLVESGGGLVQAGGSLRLSCASSGSTVSVNAMGWSRQAPGKESEFVASISKRGGSTYYADSVKGRFTISRDNAKNTVYLQMNSLKPEDTAVYYCARVLTGPGRLDYWGQGTQVTVSS | high polyreactivity
QVQLVESGGGLVQAGGSLRLSCASSGYTFIRYAIGLYRQAPGKERELVAAIRGTGTSTYYADSVKGRFTISRDNAKYTVYLQMNSLKTEDTAVYYCNKVAGRSPYTRYDYWGQGTHVTVSS | low polyreactivity
QVQLVESGGGLVQAGGSLRLSCASSGYTFTVYAKGWYRQAPGKERELVAAITWNGASTYYADSVKGRFTISRDNAKNTVYLQMNSLKPEDTAVYYCADPYYFYRDRYRLDYWGQGTQVTVSS | low polyreactivity
QVQLVESGGGLVQAGGSLRLSCATSGSIFPTYAMGSYRQAPGKERELVAAISAIVGGTYYADSVKGRFTISRDNAKNTVYLQMNSLKPEDTAVYYCNKTKFQGYDYWGQGTQVTVSS | low polyreactivity
QVQLVESGGGLVQAGGSLRLSCATSGSIFVFNAMGWYRQAPGKERELVAAIDTSDDITYYADSVKGRFTISRDNAKNTVYLQMISLKPEDTAVYYCNADTYGLVRYYIYHYEFDYWGQGTQVTVSS | high polyreactivity
QVQLVESGGGLVQAGGSLRLSCAVRRTLSFYAMGWYRQAPGKERELVATISRSGGSTYYADSVKGRFTISRDNAKNTVYLQMNSLKPEDTAVYYCAVRWKAHYWGPIYYYWGQGTQVTVSS | high polyreactivity
QVQLVESGGGLVQAGGSLRLSCAVSGRIFRRNVMGWYRQAPGKERELVAGISYSGDSTYYADSVKGRFTISRDNAKKTVYFQMNSLKPEDTAVYYCAAAVAHYRGMYYWGQGTQVTVSS | low polyreactivity
QVQLVESGGGLVQAGGSLRLSCAVSGRIFRRNVMGWYRQAPGKERELVAGISYSGDSTYYADSVKGRFTLSRDNAKITDYLQMNSLKPEDTAVYYCATRYTYSTDTGYDYWGQGTQVTVSS | low polyreactivity
QVQLVESGGGLVQAGGSLRLSCDASARTFYRNTMGWYRQAPGKERELVAAITRSGGSTYYADSVKGRFTISRDNAKNTVYLQINRLKPEDTAVYYCAASRTYYAPYGYWGQGTQVTVSS | high polyreactivity
QVQLVESGGGLVQAGGSLRLSCDASGFIIRRNAMGWYRQAPGKEREFVAAITWSGGSTYYADSVKGRFTISRDNAKNTVYLQMYSLKPEDTAVYYCAATYSQYWYTQYLNSYPGYDYWRQGTQVTVSS | low polyreactivity
QVQLVESGGGLVQAGGSLRLSCDASGFILSSNAMGWYRQAPGKERELVAAISSSGRTYYTDSVKGRFTISRDNAKNTVYLQMNSLKPEDTAVYYCAAGGYYYAIGYWGQGTQVTLSS | high polyreactivity
QVQLVESGGGLVQAGGSLRLSCDASGFTFGENAMGWYRQAPGNERELVAAISWSGTYTSYADSVKGRFTLSRDNAKNTVYLQMNSLKPEDTAVYYCATGCYAYVYPFDYWGQGTLVTVSS | low polyreactivity
QVQLVESGGGLVQAGGSLRLSCDASGGIFFLYAMGWYRQAPGKERELVAAITNDGRTYYADSVKGRFTISRDNAKYTVYLQMNSLKPEDTAVYYCDAAALISVGDLVIYEDDYWGQGTQVTVSS | low polyreactivity
QVQLVESGGGLVQAGGSLRLSCDASGIIFKYNAMGWYRQAPGKERELVAAITRRGGITYYADSVKGRFTISRDNAKNTVYLQMNSLKPEDTAVYYCAADLVYYHYYPWFYYWGQGTQVTVSS | high polyreactivity
QVQLVESGGGLVQAGGSLRLSCDASGIIFNTYAMGWYRQAPGKERELVAAISSSGGRTYYADSVKGRFTISRDYAKNTVYLQMNSLKPEDTAVYFCAADYRGGIRYYRGAAYNYWGQGTQVTVSS | high polyreactivity
QVQLVESGGGLVQAGGSLRLSCDASGITFGNYAMGWYRPAPGKDRELVAAITGSGGRTYYADSVKGRFTISRDNAKNTVYLQMNSLKPEDTAVYYCNRRQYGRKKQYDYWGQGTQVTVSS | high polyreactivity

— the nanobody polyreactivity screen of Harvey et al. (2022)
